# Data reported in the Immune Epitope Database (IEDB).
# Key:
# [1] = biological target: HLA-B*07:02; experiment: IEDB peptide-MHC binding, purified MHC/competitive/radioactivity; filed as Kd, often an IC50 or EC50 that approximates it; ≥ and ≤ were set here for values at or beyond the usual limits of such assays; details: source organism: Homo sapiens
# [2] = biological target: HLA-A*03:01; experiment: as above; details: source organism: Homo sapiens
# [3] = biological target: HLA-A*01:01; experiment: as above
# [4] = biological target: HLA-B*07:02; experiment: IEDB peptide-MHC binding, purified MHC/competitive/radioactivity; ≥ and ≤ were set here for values at or beyond the usual limits of such assays; details: source organism: Homo sapiens
# [5] = biological target: HLA-A*03:01; experiment: as above; details: source organism: Homo sapiens
# [6] = biological target: HLA-A*02:01; experiment: as above; details: source organism: Homo sapiens
Sequence,Kd [1] [µM],Kd [2] [µM],Kd ([3]; source organism: Hepatitis B virus subtype adyw) [µM],Kd ([3]; source organism: Homo sapiens) [µM],IC50 [4] [µM],IC50 [5] [µM],IC50 [6] [µM]
EADPTGHSY,≥ 5,≥ 5,,,,,
FLPSDFFPSV,,,≥ 5,,,,
LLDVPTAAV,≥ 5,≥ 5,,4.31,,,
RVMAPRALL,,,,≥ 5,0.0046,0.905,
SLLPAIVEL,≥ 5,≥ 5,,≥ 5,,,0.024
YLLPAIVHI,≥ 5,≥ 5,,≥ 5,,,
